From patent publication US20080009038A1 (Chugai, published 2008)

B1: VB45B sc(Fv)2 (scFv, part only; not given: linkers and FLAG tag, part only)
scFv, part: QVQLQQSGPELVKPGASVKISCKASGYAFSSSWMNWVKQRPGKGLEWIGRIYPGDGETNNNGKFKGKATLTADKSSTTAYMQLSSLTSEDSAVYFCARGYGDYSFAYWGQGTLVTVSADIVMTQAAPSVPVTPGESVSISCRSSKSLLHSNGNTYLYWFLQRPGQSPQLLIYRMSNLASGVPDRFSGSGSGAAFTLRISRVEAEDVGVYYCMQHLEYPYTFGSGTKLEIKQVQLQQSGPELVKPGASVKISCKASGYAFSSSWMNWVKQRPGKGLEWIGRIYPGDGETNNNGKFKGKATLTADKSSTTAYMQLSSLTSEDSAVYFCARGYGDYSFAYWGQGTLVTVSADIVMTQAAPSVPVTPGESVSISCRSSKSLLHSNGNTYLYWFLQRPGQSPQLLIYRMSNLASGVPDRFSGSGSGAAFTLRISRVEAEDVGVYYCMQHLEYPYTFGSGTKLEIK
B2: VB140 sc(Fv)2 (scFv, part only; not given: linkers and FLAG tag, part only)
scFv, part: QVQLQQSGPELVKPGASVKISCRAFGYAFSNSWMNWVKQRPGKGLEWIGRIYPGDGETNNNGKFKGKATLTADKSSSTAYMQLSSLTSEDSAVYFCARGYGDYSFAYWGQGTLVTVSADIVMTQAAPSVPVTPGESVSISCRSSKSLLHSNGNTYLYWFLQRPGQSPQLLIYRMSNLASGVPDRFSGSGSGAAFTLRISRVEAEDVGVYYCMQHLEYPYTFGSGTKLEIKQVQLQQSGPELVKPGASVKISCRAFGYAFSNSWMNWVKQRPGKGLEWIGRIYPGDGETNNNGKFKGKATLTADKSSSTAYMQLSSLTSEDSAVYFCARGYGDYSFAYWGQGTLVTVSADIVMTQAAPSVPVTPGESVSISCRSSKSLLHSNGNTYLYWFLQRPGQSPQLLIYRMSNLASGVPDRFSGSGSGAAFTLRISRVEAEDVGVYYCMQHLEYPYTFGSGTKLEIK
B3: TA136 sc(Fv)2 (scFv, part only; not given: linkers and FLAG tag, part only)
scFv, part: DVQLQESGPGLVKPSQSLSLTCTVTGYSITSDYAWSWIRQLPGNKLEWMGYITYSGYSIYNPSLKSRISISRDTSKNQLFLQLNSVTTEDTATYYCVGGYDNMDYWGQGTSVTVSSQIVLTQSPAIMSASPGEKVTLTCSASSSVSSSHLYWYQQKPGSSPKLWIYSTSNLASGVPARFSGSGSGTSYSLTISNMETEDAASYFCHQWSSYPWTFGGGTKLEIKDVQLQESGPGLVKPSQSLSLTCTVTGYSITSDYAWSWIRQLPGNKLEWMGYITYSGYSIYNPSLKSRISISRDTSKNQLFLQLNSVTTEDTATYYCVGGYDNMDYWGQGTSVTVSSQIVLTQSPAIMSASPGEKVTLTCSASSSVSSSHLYWYQQKPGSSPKLWIYSTSNLASGVPARFSGSGSGTSYSLTISNMETEDAASYFCHQWSSYPWTFGGGTKLEIK
B4: VB16 diabody (scFv, V domains shown, part only)
VH: QVQLQQPGTELVRPGASVKLSCKASGYTFTDYWVNWVKQRPGRGLEWIGRIHPYDSETHYNQKFKNKATLTVDKSSSTAYIQLSSLTSEDSAVYYCASGGWFASWGQGTLVTVSA
VL: DIVMTQAAPSVPVTPGESVSISCRSSKSLLYSNGNTYLYWFLQRPGQSPQLLIYRMSNLASGVPDRFSGSGSGTAFTLTISSVEAEDVGVYYCMQHLEYPYTFGSGTKLEIK
modifications: (Gly4Ser)1 linker; C-terminal FLAG tag
B5: VB140 diabody (scFv, V domains shown, part only)
VH: QVQLQQSGPELVKPGASVKISCRAFGYAFSNSWMNWVKQRPGKGLEWIGRIYPGDGETNNNGKFKGKATLTADKSSSTAYMQLSSLTSEDSAVYFCARGYGDYSFAYWGQGTLVTVSA
VL: DIVMTQAAPSVPVTPGESVSISCRSSKSLLHSNGNTYLYWFLQRPGQSPQLLIYRMSNLASGVPDRFSGSGSGAAFTLRISRVEAEDVGVYYCMQHLEYPYTFGSGTKLEIK
modifications: (Gly4Ser)1 linker; C-terminal FLAG tag
B6: VB45B diabody (scFv, V domains shown, part only)
VH: QVQLQQSGPELVKPGASVKISCKASGYAFSSSWMNWVKQRPGKGLEWIGRIYPGDGETNNNGKFKGKATLTADKSSTTAYMQLSSLTSEDSAVYFCARGYGDYSFAYWGQGTLVTVSA
VL: DIVMTQAAPSVPVTPGESVSISCRSSKSLLHSNGNTYLYWFLQRPGQSPQLLIYRMSNLASGVPDRFSGSGSGAAFTLRISRVEAEDVGVYYCMQHLEYPYTFGSGTKLEIK
modifications: (Gly4Ser)1 linker; C-terminal FLAG tag
B7: VB16 sc(Fv)2 (scFv, part only; not given: linkers and FLAG tag, part only)
scFv, part: QVQLQQPGTELVRPGASVKLSCKASGYTFTDYWVNWVKQRPGRGLEWIGRIHPYDSETHYNQKFKNKATLTVDKSSSTAYIQLSSLTSEDSAVYYCASGGWFASWGQGTLVTVSADIVMTQAAPSVPVTPGESVSISCRSSKSLLYSNGNTYLYWFLQRPGQSPQLLIYRMSNLASGVPDRFSGSGSGTAFTLTISSVEAEDVGVYYCMQHLEYPYTFGSGTKLEIKQVQLQQPGTELVRPGASVKLSCKASGYTFTDYWVNWVKQRPGRGLEWIGRIHPYDSETHYNQKFKNKATLTVDKSSSTAYIQLSSLTSEDSAVYYCASGGWFASWGQGTLVTVSADIVMTQAAPSVPVTPGESVSISCRSSKSLLYSNGNTYLYWFLQRPGQSPQLLIYRMSNLASGVPDRFSGSGSGTAFTLTISSVEAEDVGVYYCMQHLEYPYTFGSGTKLEIK
B8: TA136 diabody (scFv, V domains shown, part only)
VH: DVQLQESGPGLVKPSQSLSLTCTVTGYSITSDYAWSWIRQLPGNKLEWMGYITYSGYSIYNPSLKSRISISRDTSKNQLFLQLNSVTTEDTATYYCVGGYDNMDYWGQGTSVTVSS
VL: QIVLTQSPAIMSASPGEKVTLTCSASSSVSSSHLYWYQQKPGSSPKLWIYSTSNLASGVPARFSGSGSGTSYSLTISNMETEDAASYFCHQWSSYPWTFGGGTKLEIK
modifications: (Gly4Ser)1 linker; C-terminal FLAG tag
B9: anti-human Mp1 antibody VB22B (antibody, mouse IgG2b, V domains shown)
VH: QVQLQQSGPELVKPGASVKISCKASGYAFTNSWMNWVKQRPGKGLEWIGRIYPGDGETIYNGKFRVKATLTADKSSSTAYMDISSLTSEDSAVYFCARGYDDYSFAYWGQGTLVTVSA
VL: DIVMTQAAPSIPVTPGESVSISCRSSKSLLHSNGNTYLYWFLQRPGQSPQLLIYRMSNLASGVPDRFSGSGSGTAFTLRISRVEAEDVGVYYCMQHIEYPFTFGSGTKLEIK
notes: Mouse monoclonal antibody from a hybridoma, tested as culture supernatant; they were cloned with primers for the mouse IgG2b and kappa constant regions

molecular target: full-length human Mp1 expressed on BaF3 cells (human) (UniProt P40238); assay: cell-based or functional assay

Point of comparison: B6, agonistic activity (EC50 value: pM) in BaF3-human Mpl, cell proliferation (WST-8) 76 pM. Against it:
- B1 — lower, 30 pM
- B2 — lower, 38 pM
- B3 — lower, 54 pM
- B4 — higher, 190 pM
- B5 — higher, 89 pM
- B7 — higher, 95 pM
- B8 — higher, 3080 pM

molecular target: T1, human Mp1 (human, UniProt P40238 26-491, limits assumed); assay: hybridoma supernatants; ELISA on shMp1-FLAG and hMp1-Fc, flow cytometry on CHO-human Mp1 cells, BaF3-human Mp1 proliferation
T1 construct: The analyses of section 1.6 used shMp1-FLAG and hMp1-Fc in ELISA, and CHO-human Mp1 and BaF3-human Mp1 cells; also called human Mpl; TPO receptor
T1 sequence (looked up): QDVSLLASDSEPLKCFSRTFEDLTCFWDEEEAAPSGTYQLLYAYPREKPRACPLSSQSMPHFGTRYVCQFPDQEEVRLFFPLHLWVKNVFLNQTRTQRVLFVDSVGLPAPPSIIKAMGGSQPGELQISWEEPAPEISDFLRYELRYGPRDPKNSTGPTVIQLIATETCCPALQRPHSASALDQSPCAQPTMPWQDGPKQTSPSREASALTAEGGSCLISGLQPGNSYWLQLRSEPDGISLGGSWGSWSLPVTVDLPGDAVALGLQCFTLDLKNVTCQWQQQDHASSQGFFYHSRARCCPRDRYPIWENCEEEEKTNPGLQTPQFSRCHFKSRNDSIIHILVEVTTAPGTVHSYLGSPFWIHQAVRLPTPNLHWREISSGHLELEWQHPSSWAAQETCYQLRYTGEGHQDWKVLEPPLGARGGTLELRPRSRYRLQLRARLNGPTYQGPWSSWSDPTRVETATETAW
Procedure: MRL/MpJUmmCrj-lpr/lpr mice (hereinafter abbreviated as “MRL/lpr mice”; purchased from Charles River, Japan) were immunized; the primary immunization was carried out at eight weeks of age. For every single mouse, an emulsion containing 100 μg of shMPL-FLAG combined with Freud's complete adjuvant (H37 Ra; Beckton Dickinson), was administered subcutaneously as the primary injection. As a booster injection, an emulsion containing shMPL-FLAG (50 μg per mouse) combined with Freud's incomplete adjuvant (Beckton Dickinson) was administered subcutaneously. Three mice which have been immunized six times in total were subjected to a final injection of shMPL-FLAG (50 μg per mouse) through the caudal vein. Cell fusion was achieved by mixing the mouse myeloma P3-X63Ag8U1 cells (P3U1; purchased from ATCC) and mouse splenocytes using polyethylene glycol 1500 (Roche Diagnostics). Hybridoma selection in HAT medium began the following day and culture supernatants were obtained. Screening was carried out by ELISA using immunoplates with immobilized shMp1-FLAG or hMp1-Fc, and by a cell proliferation assay of BaF3-hMp1. Positive clones were isolated as single clones by limiting dilution and then cultured on a large scale. The culture supernatants were collected. Anti-human Mp1 antibody-producing hybridomas, VB22B, VB16, VB140, and VB45B, were obtained by this method.

B9: binds.
